Experimental data from article PMC6423188, “HYNIC and DOMA conjugated radiolabeled bombesin analogs as receptor-targeted probes for scintigraphic detection of breast tumor” (EJNMMI Research, 2019).

Assays:
physchem = type: physicochemical; conditions: pH 7.4
Protocol: Lipophilicity of the HPLC-purified radiopeptide analogs was determined through octanol/water partition coefficients, determined at pH 7.4 by measuring the distribution of the HPLC purified radiolabeled peptides in 1-octanol and PBS. Then, 50 μL HPLC purified ^99mTc-BN1/^99mTc-BN2/^99mTc-BN3/^99mTc-BN4/^99mTc-BNS with 100 μCi of radiolabeled compound in PBS was added to a to a centrifuge tube containing 1 mL n-octanol and 1 mL PBS (0.025 M, pH 7.4). The tube was vortexed at room temperature for 2 min and they are centrifuged at 5000 rpm for 5 min to ensure complete separation of layers. Further, 100 μL of each phase was transferred into a separate pre-weighed vial and measured in the well γ-counter. The ratio of octanol layer counts to aqueous layer counts was expressed as the distribution coefficient (D, the appropriate descriptor for ionizable compounds) and logD was used for determination of lipophilicity. Counts per unit weight of the sample were calculated, and logD value as calculated as follows:
log10D = log10 [(cpm in octanol – cpm in background) / (cpm in buffer – cpm in background)]

in vitro = in vitro ADME; conditions: rat
Protocol: An aliquot (100 μL) of ^99mTc-BN1/^99mTc-BN2/^99mTc-BN3/^99mTc-BN4/^99mTc-BNS was added to 1 mL of freshly collected rat serum in centrifuge tube. The mixture was then incubated at 37 °C for 1 h; the serum protein was precipitated by adding 1 mL trichloroacetic acid (10%, V/V). The supernatant and precipitate were separated by centrifugation at 3000 rpm for 5 min. Radioactivities of both the phases were measured separately. The above experimental procedure was repeated three times. The percentage of protein binding was determined as: Plasma protein binding % = (precipitate counts (CPM) / [precipitate counts (CPM) + plasma counts (CPM)]) × 100%.

[1] = system: MDA-MB-231 tumor-bearing mice; assay: In vivo biodistribution; parameters: species or system mouse; conditions: for Tumor uptake: MDA-MB-231 tumor; for Tumor uptake / Blood uptake / Heart uptake / Intestine uptake / Kidney uptake / Liver uptake / Lung uptake / Muscle uptake / Pancreas uptake / Spleen uptake / Stomach uptake / Urine + urinary bladder uptake: mean ± SD, n = 3
Protocol: All animal experiments were done according to the CSIR-IICB Animal Ethics Committee’s rules and regulation. Forty-eight hours before tumor cell implantation, an immunosuppressive drug (cyclosporine-A) was given intraperitoneal (i.p) at a concentration of 30 mg/kg/day. After that, MDA-MB-231 cells (5 × 10^6) 0.2 mL were implanted subcutaneously into the left flanks of the hind leg of BALB/c mice. Thereafter, the same dose of cyclosporine was given i.p. daily up to 2 weeks. Two weeks after inoculation of the tumor cells, when tumors reached ~ 0.5 cm in mean diameter, the tumor-bearing mice were used for biodistribution and imaging studies. Animals were monitored daily and their weights were recorded. Control group of mice received only 0.9 wt% saline. After cell implantation, the growth rate of the breast tumor followed a satisfactory pattern of spheroid shape and tumors are palpable within 2 to 4 weeks. MDA-MB-231 cell implanted mice tumor models were used for biodistribution and planar imaging studies of these radiolabeled new bombesin analogs.
In tissue biodistribution studies, tumor-bearing animals were divided into four groups and well hydrated for 1 h by intraperitoneal administration of saline (0.9%, 2 mL). Three animals per groups were used for biodistribution studies. After that, the radiolabeled new bombesin analogs (^99mTc-BN) were injected intravenously in each animal of each group consequently through the tail vein [24–27]. After 5, 30, 60, and 120 min intravenous administrations of radiolabeled analogs, the animals were sacrificed; blood, heart, lung, liver, kidney, stomach, intestine, spleen, pancreas, brain, muscle, and tumor were excised, weighed, and counted for radioactivity. The organ uptake was calculated as a percentage of the injected activity per gram of wet tissue (%IA/g). In order to evaluate whether binding of bombesin analogs to MDA-MB-231 cells in vivo is specific; blocking studies with ^99mTc-labeled bombesin analogs in tumor-bearing mice were carried out. Groups of three animals were injected 0.03 nmol of ^99mTc-labeled BN analogs (2 MBq) with 25 nmol of non-radiolabeled BN peptide. After 60 min and 120 min, mice were sacrificed and the organs were collected. Each organ was weighed and counted in a gamma counter along with activity standard and percentage of injected activity per gram (%IA/g) of tissue was calculated for each type of tissues. Counts were corrected for background radiation and physical decay of the radioactivity. The uptake was expressed in the percentage of injected activity per gram of each organ (%IA/g). Data were analyzed statistically by the t test, with the level of significance set at P < 0.05.

[2] = 60 min p.i., blocked with excess non-radiolabeled BN peptide

## ^99mTc-HYNIC-Asp-Asn-[Lys^11CHAla^13Nle^14]-BN(7-14)NH2 [99mTc-BN3]
physchem
  logD: − 2.21 ± 0.13
In vitro
  Percentage of plasma protein binding: 26.00%
[1]; 5 min p.i.
  tumor/blood ratio: 2.37
  tumor/kidney ratio: 0.64
  tumor/muscle ratio: 2.56
[1]; 5 min p.i., i.v.
  Tumor uptake: 1.28 ± 0.01 %IA/g
  Blood uptake: 0.54 ± 0.01 %IA/g
  Heart uptake: 0.91 ± 0.03 %IA/g
  Intestine uptake: 1.21 ± 0.06 %IA/g
  Kidney uptake: 1.97 ± 0.11 %IA/g
  Liver uptake: 0.44 ± 0.03 %IA/g
  Lung uptake: 0.87 ± 0.14 %IA/g
  Muscle uptake: 0.50 ± 0.01 %IA/g
  Pancreas uptake: 2.78 ± 0.11 %IA/g
  Spleen uptake: 0.54 ± 0.04 %IA/g
  Stomach uptake: 0.52 ± 0.02 %IA/g
  Urine + urinary bladder uptake: 0.61 ± 0.04 %IA/g
[1]; 30 min p.i.
  tumor/blood ratio: 3.47
  tumor/kidney ratio: 0.76
  tumor/muscle ratio: 9.83
[1]; 30 min p.i., i.v.
  Tumor uptake: 2.95 ± 0.01 %IA/g
  Blood uptake: 0.85 ± 0.01 %IA/g
  Heart uptake: 0.77 ± 0.02 %IA/g
  Intestine uptake: 1.46 ± 0.05 %IA/g
  Kidney uptake: 3.88 ± 0.21 %IA/g
  Liver uptake: 0.23 ± 0.13 %IA/g
  Lung uptake: 0.62 ± 0.03 %IA/g
  Muscle uptake: 0.30 ± 0.02 %IA/g
  Pancreas uptake: 3.59 ± 0.03 %IA/g
  Spleen uptake: 0.46 ± 0.01 %IA/g
  Stomach uptake: 0.74 ± 0.04 %IA/g
  Urine + urinary bladder uptake: 2.80 ± 0.01 %IA/g
[1]; 60 min p.i.
  tumor/blood ratio: 5.71
  tumor/kidney ratio: 0.85
  tumor/muscle ratio: 10.38
[1]; [2]
  Tumor uptake: 0.54 ± 0.20 %IA/g
  Blood uptake: 0.30 ± 0.01 %IA/g
  Heart uptake: 0.29 ± 0.11 %IA/g
  Intestine uptake: 1.36 ± 0.23 %IA/g
  Kidney uptake: 3.18 ± 0.20 %IA/g
  Liver uptake: 0.20 ± 0.03 %IA/g
  Lung uptake: 0.52 ± 0.02 %IA/g
  Muscle uptake: 0.16 ± 0.21 %IA/g
  Pancreas uptake: 0.92 ± 0.02 %IA/g
  Spleen uptake: 0.33 ± 0.03 %IA/g
  Stomach uptake: 0.37 ± 0.10 %IA/g
  Urine + urinary bladder uptake: 3.52 ± 0.07 %IA/g
[1]; 60 min p.i., i.v.
  Tumor uptake: 2.70 ± 0.02 %IA/g
  Blood uptake: 0.47 ± 0.04 %IA/g
  Heart uptake: 0.35 ± 0.02 %IA/g
  Intestine uptake: 1.85 ± 0.21 %IA/g
  Kidney uptake: 3.17 ± 0.17 %IA/g
  Liver uptake: 0.18 ± 0.12 %IA/g
  Lung uptake: 0.50 ± 0.02 %IA/g
  Muscle uptake: 0.26 ± 0.03 %IA/g
  Pancreas uptake: 2.11 ± 0.06 %IA/g
  Spleen uptake: 0.30 ± 0.01 %IA/g
  Stomach uptake: 0.66 ± 0.02 %IA/g
  Urine + urinary bladder uptake: 3.75 ± 0.11 %IA/g
[1]; 120 min p.i.
  tumor/blood ratio: 7.04
  tumor/kidney ratio: 1.20
  tumor/muscle ratio: 8.89
[1]; 120 min p.i., i.v.
  Tumor uptake: 1.69 ± 0.03 %IA/g
  Blood uptake: 0.24 ± 0.01 %IA/g
  Heart uptake: 0.15 ± 0.04 %IA/g
  Intestine uptake: 0.70 ± 0.05 %IA/g
  Kidney uptake: 1.40 ± 0.13 %IA/g
  Liver uptake: 0.11 ± 0.03 %IA/g
  Lung uptake: 0.35 ± 0.11 %IA/g
  Muscle uptake: 0.19 ± 0.02 %IA/g
  Pancreas uptake: 1.22 ± 0.04 %IA/g
  Spleen uptake: 0.12 ± 0.02 %IA/g
  Stomach uptake: 0.25 ± 0.01 %IA/g
  Urine + urinary bladder uptake: 3.91 ± 0.22 %IA/g
